Data reported in the supplement of paper PMC10126150.
± gives the standard deviation of the averaged measurements.

system: ATP; assay: switch fluorescence ratio, 500 uM ATP over buffer (Cy3 cluster intensity, sum of 5 cycles each) (fold (ratio)); higher = stronger signal-on switching upon ATP binding; sequences stand for … in TCGTCGGCAGCGTCAGATGTGTATAAGAGACAGTTTTTTTTTTTTTTTTTTTTTTTTT…TC; conditions: aptamer strand: ATP DNA aptamer (quencher-CACCTGGGGGAGTATTGCGGAGGAAGG + anchor), 100 nM annealed; ATP concentration: 500 uM
Method in brief: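 Values give the fluorescence ratio for each switch-domain sequence, averaged from per-cluster ratios of summed target-cycle to summed buffer-cycle Cy3 intensity. The Cy3-labelled switching-strand clusters sat on a modified Illumina MiSeq flow-cell, were annealed to 100 nM quencher-labelled ATP aptamer, and were imaged in selection buffer, then after 15 min with 500 uM ATP at 22 °C. Five cycles ran with NaOH stripping and re-annealing between them, and clusters outside 100-1000 RFU were excluded.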
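Further: ATP exposure 15 min at 22 °C before imaging.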

Sequence	switch fluorescence ratio
TGGGGACGCT	0.9977 ± 0.004
TGGGGACGTG	1.013 ± 0.0047
TGGGGACTTG	0.9782 ± 0.0015
TGGGGAGGAG	0.995 ± 0.017
TGGGGAGGCA	0.97516 ± 0.00042
TGGGGAGGGA	0.983 ± 0.033
TGGGGAGGGG	0.991 ± 0.047
TGGGGATCGA	1.04 ± 0.011
TGGGGATTAG	1.01 ± 0.033
TGGGGCACCG	0.994 ± 0.029
TGGGGCAGCA	1.01 ± 0.042
TGGGGCAGCG	1.007 ± 0.0039
TGGGGCCGAT	1.02 ± 0.021
TGGGGCGCTA	1.07 ± 0.11
TGGGGCGTTT	1.01 ± 0.022
TGGGGCTCTA	1.03 ± 0.033
TGGGGCTTAT	0.987 ± 0.026
TGGGGCTTTT	1.02 ± 0.053
TGGGGGAATC	1.02 ± 0.046
TGGGGGAATG	0.992 ± 0.0027
TGGGGGACAT	1.01 ± 0.028
TGGGGGATGG	0.996 ± 0.057
TGGGGGCAGT	1.12 ± 0.066
TGGGGGCTGG	0.991 ± 0.013
TGGGGGG	1.016 ± 0.0078

Sequence	switch fluorescence ratio
TGGGGGGAAC	1.02 ± 0.019
TGGGGGGAAG	0.994 ± 0.018
TGGGGGGCGA	0.997 ± 0.011
TGGGGGGCGC	0.989 ± 0.025
TGGGGGGCGT	1.01 ± 0.043
TGGGGGGGAG	0.996 ± 0.029
TGGGGGGGCC	0.968 ± 0.0076
TGGGGGGTGG	1 ± 0.041
TGGGGGGTGT	1.02 ± 0.069
TGGGGGTAAA	0.9997 ± 0.0091
TGGGGGTCCT	1.01 ± 0.031
TGGGGTACAC	0.993 ± 0.024
TGGGGTACGA	1.01 ± 0.026
TGGGGTACGG	1.004 ± 0.0064
TGGGGTACGT	1.02 ± 0.013
TGGGGTACTT	0.973 ± 0.027
TGGGGTAGGT	0.999 ± 0.011
TGGGGTCAGG	1.016 ± 0.0086
TGGGGTCTCT	0.985 ± 0.042
TGGGGTGATC	1 ± 0.029
TGGGGTGCGA	1.01 ± 0.042
TGGGGTGGCA	1.01 ± 0.045
TGGGGTGGCT	0.985 ± 0.015
TGGGGTTCAC	0.998 ± 0.018
TGGGGTTGAA	0.958 ± 0.022

Sequence	switch fluorescence ratio
TGGGGTTTCG	0.973 ± 0.038
TGGGGTTTTG	0.979 ± 0.015
TGGGTAAAGT	0.971 ± 0.019
TGGGTAACTT	1.1 ± 0.18
TGGGTAAGTA	0.993 ± 0.012
TGGGTAAGTG	0.975 ± 0.022
TGGGTACGCT	1.01 ± 0.022
TGGGTAGAAC	1.12 ± 0.13
TGGGTATATA	1.03 ± 0.016
TGGGTATGAA	0.977 ± 0.019
TGGGTATTCC	1.021 ± 0.0085
TGGGTCAGGT	0.9994 ± 0.0084
TGGGTCGTGC	0.99 ± 0.011
TGGGTCTACT	0.9761 ± 0.0084
TGGGTCTAGT	0.9975 ± 0.0042
TGGGTGACGA	1.01 ± 0.024
TGGGTGCAAA	1.01 ± 0.033
TGGGTGTAT	1.01 ± 0.023
TGGGTGTCAC	0.9868 ± 0.005
TGGGTGTGTT	0.995 ± 0.028
TGGGTTAGCG	0.995 ± 0.041
TGGGTTAGGT	0.977 ± 0.022
TGGGTTAGTA	0.984 ± 0.015
TGGGTTATAT	0.979 ± 0.011
TGGGTTATGC	0.984 ± 0.018

Sequence	switch fluorescence ratio
TGGGTTATGT	0.992 ± 0.019
TGGGTTCGGT	0.995 ± 0.0032
TGGGTTCTGA	0.98 ± 0.011
TGGGTTGGAT	0.99 ± 0.013
TGGGTTTATT	0.984 ± 0.014
TGGGTTTCAG	0.996 ± 0.05
TGGGTTTTCA	0.984 ± 0.016
TGGGTTTTCT	1.08 ± 0.28
TGGGTTTTTA	0.9442 ± 0.0014
TGGGTTTTTG	1.01 ± 0.039
TGGTAAATCT	1 ± 0.036
TGGTAATATA	1.02 ± 0.024
TGGTAATATC	1.012 ± 0.0024
TGGTAATCAA	1.01 ± 0.039
TGGTACGGGG	1.02 ± 0.033
TGGTACGGTC	0.927 ± 0.041
TGGTAGAGAT	1.01 ± 0.051
TGGTAGGGTG	1.01 ± 0.034
TGGTAGTAGG	0.995 ± 0.017
TGGTAGTCGT	0.994 ± 0.043
TGGTAGTGAC	1.03 ± 0.064
TGGTAGTTTT	0.9899 ± 0.0078
TGGTATATT	0.986 ± 0.027
TGGTATTGTG	0.947 ± 0.021
TGGTATTTGG	0.949 ± 0.046
